We go through three proteins from article PMC11310373, “Development of a microbial dewaxing agent using three spore forming bacteria” (Bioresources and Bioprocessing, 2024).

What is called Km is the substrate concentration at which the rate is half of its maximum. As usually defined, the kcat is the maximal rate divided by the concentration of active sites. One may read the kcat/Km as the second-order rate constant that governs catalysis at low substrate concentration.

Substrate in data set [1]: CCCCCCCCCCCCCCCCCC
The data set is described as follows: NADPH consumption, Lineweaver-Burk. Format: biochemical, Geobacillus thermodenitrificans. To be noted: 10 mM NADPH, 0.015% Triton X-100, 50 mM Tris-HCl pH 8.0, 60 °C. From the text: NADPH consumption, Lineweaver-Burk on LadA (alkane monooxygenase)

Substrate in data set [2]: Cc1cc2nc3c(=O)[nH]c(=O)nc-3n(C[C@H](O)[C@H](O)[C@H](O)COP(=O)(O)O)c2cc1C
The data set is described as follows: purified protein. Format: biochemical, Geobacillus thermodenitrificans. Particulars: FMN added to octadecane/NADPH mixture, FMNH2 consumption followed at A455, pH 8.0, 60 °C, varied: cofactor.

B1: LadA (alkane monooxygenase) (Geobacillus thermodenitrificans NG80-2) (protein)
chain: MTKKIHINAFEMNCVGHIAHGLWRHPENQRHRYTDLNYWTELAQLLEKGKFDALFLADVVGIYDVYRQSRDTAVREAVQIPVNDPLMLISAMAYVTKHLAFAVTFSTTYEHPYGHARRMSTLDHLTKGRIAWNVVTSHLPSADKNFGIKKILEHDERYDLADEYLEVCYKLWEGSWEDNAVIRDIENNIYTDPSKVHEINHSGKYFEVPGPHLCEPSPQRTPVIYQAGMSERGREFAAKHAECVFLGGKDVETLKFFVDDIRKRAKKYGRNPDHIKMFAGICVIVGKTHDEAMEKLNSFQKYWSLEGHLAHYGGGTGYDLSKYSSNDYIGSISVGEIINNMSKLDGKWFKLSVGTPKKVADEMQYLVEEAGIDGFNLVQYVSPGTFVDFIELVVPELQKRGLYRVDYEEGTYREKLFGKGNYRLPDDHIAARYRNISSNV
Regarding B1, in data set [1], the Michaelis-Menten constant (Km) turned out to be 10360 ± 1600 µM, the catalytic constant (kcat) came to 0.0297 ± 0.0033 s⁻¹ and the kcat/Km is 2.83 M⁻¹ s⁻¹. Besides, in data set [2], the Km was determined as 3.3 ± 0.2 µM.

B2: LadA (alkane monooxygenase) (Geobacillus thermodenitrificans NG80-2; F10L) (protein)
chain: MTKKIHINALEMNCVGHIAHGLWRHPENQRHRYTDLNYWTELAQLLEKGKFDALFLADVVGIYDVYRQSRDTAVREAVQIPVNDPLMLISAMAYVTKHLAFAVTFSTTYEHPYGHARRMSTLDHLTKGRIAWNVVTSHLPSADKNFGIKKILEHDERYDLADEYLEVCYKLWEGSWEDNAVIRDIENNIYTDPSKVHEINHSGKYFEVPGPHLCEPSPQRTPVIYQAGMSERGREFAAKHAECVFLGGKDVETLKFFVDDIRKRAKKYGRNPDHIKMFAGICVIVGKTHDEAMEKLNSFQKYWSLEGHLAHYGGGTGYDLSKYSSNDYIGSISVGEIINNMSKLDGKWFKLSVGTPKKVADEMQYLVEEAGIDGFNLVQYVSPGTFVDFIELVVPELQKRGLYRVDYEEGTYREKLFGKGNYRLPDDHIAARYRNISSNV
With B2, in data set [1], the Km worked out at 6980 ± 500 µM, the kcat is 0.036 ± 0.005 s⁻¹ and the kcat/Km came out at 5.17 M⁻¹ s⁻¹. In data set [2], the Km was found to be 3.1 ± 0.3 µM.

B3: LadA (alkane monooxygenase) (Geobacillus thermodenitrificans NG80-2; F10L/N133R) (protein)
chain: MTKKIHINALEMNCVGHIAHGLWRHPENQRHRYTDLNYWTELAQLLEKGKFDALFLADVVGIYDVYRQSRDTAVREAVQIPVNDPLMLISAMAYVTKHLAFAVTFSTTYEHPYGHARRMSTLDHLTKGRIAWRVVTSHLPSADKNFGIKKILEHDERYDLADEYLEVCYKLWEGSWEDNAVIRDIENNIYTDPSKVHEINHSGKYFEVPGPHLCEPSPQRTPVIYQAGMSERGREFAAKHAECVFLGGKDVETLKFFVDDIRKRAKKYGRNPDHIKMFAGICVIVGKTHDEAMEKLNSFQKYWSLEGHLAHYGGGTGYDLSKYSSNDYIGSISVGEIINNMSKLDGKWFKLSVGTPKKVADEMQYLVEEAGIDGFNLVQYVSPGTFVDFIELVVPELQKRGLYRVDYEEGTYREKLFGKGNYRLPDDHIAARYRNISSNV
Turning to B3, in data set [1], the Km turned out to be 2040 ± 200 µM, the turnover number (kcat) came out at 0.0737 ± 0.01 s⁻¹ and the kcat/Km was 36.2 M⁻¹ s⁻¹. Also, in data set [2], the Michaelis-Menten constant (Km) came to 3.9 ± 0.3 µM.
